The source of these data is patent US20140199692A1.

In the assay the target is eukaryotic translation initiation factor eIF4E (endogenous, in lysates of human cell lines) (UniProt P06730). Put plainly: immunoprecipitation of eIF4E from nuclear lysates.
eukaryotic translation initiation factor eIF4E (endogenous, in lysates of human cell lines), sequence (P06730 2-217 limits assumed): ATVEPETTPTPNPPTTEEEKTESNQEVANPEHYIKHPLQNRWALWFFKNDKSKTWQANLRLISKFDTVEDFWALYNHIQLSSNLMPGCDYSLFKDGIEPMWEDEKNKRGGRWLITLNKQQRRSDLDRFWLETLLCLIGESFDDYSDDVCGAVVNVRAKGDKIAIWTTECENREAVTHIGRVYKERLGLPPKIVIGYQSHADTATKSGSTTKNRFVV

In the case of “mouse monoclonal anti-eIF4E Ab (BD Transduction Laboratories) (antibody)”, the efficiency of IP was less than 80%.
